The target of this data set is Argonaute-2 (hAgo2) (Homo sapiens, UniProt Q9UKV8 Q9UKV8:1-859). Description: EMSA; DNA cariMir co-migrates with Ago2-miR complex. Particulars: tags: expressed in sf9 insect cells, endogenous insect miRs co-purify; label: fluorescein. As to the method: Recombinant hAgo2 (Creative Biomart) was preloaded with synthetic miR guide in cleavage buffer (150 mM NaCl, 5 mM MgCl₂, 2.5% glycerol, 0.05% Tween-20, 10 mM Tris-HCl, pH 7.4) for 10-20 min at room temperature, followed by addition of target cariMir. Reactions were stopped by addition of gel loading buffer and immediately resolved by non-denaturing PAGE using 10% TBE gels (Life Technologies). Gels were stained with SYBR Green I and imaged with a PXi gel imager (Syngene). Gel densitometric analysis was performed using Image J and data were plotted in Prism 6 (GraphPad).
Argonaute-2 (hAgo2), sequence (Q9UKV8 whole entry, one chain of several): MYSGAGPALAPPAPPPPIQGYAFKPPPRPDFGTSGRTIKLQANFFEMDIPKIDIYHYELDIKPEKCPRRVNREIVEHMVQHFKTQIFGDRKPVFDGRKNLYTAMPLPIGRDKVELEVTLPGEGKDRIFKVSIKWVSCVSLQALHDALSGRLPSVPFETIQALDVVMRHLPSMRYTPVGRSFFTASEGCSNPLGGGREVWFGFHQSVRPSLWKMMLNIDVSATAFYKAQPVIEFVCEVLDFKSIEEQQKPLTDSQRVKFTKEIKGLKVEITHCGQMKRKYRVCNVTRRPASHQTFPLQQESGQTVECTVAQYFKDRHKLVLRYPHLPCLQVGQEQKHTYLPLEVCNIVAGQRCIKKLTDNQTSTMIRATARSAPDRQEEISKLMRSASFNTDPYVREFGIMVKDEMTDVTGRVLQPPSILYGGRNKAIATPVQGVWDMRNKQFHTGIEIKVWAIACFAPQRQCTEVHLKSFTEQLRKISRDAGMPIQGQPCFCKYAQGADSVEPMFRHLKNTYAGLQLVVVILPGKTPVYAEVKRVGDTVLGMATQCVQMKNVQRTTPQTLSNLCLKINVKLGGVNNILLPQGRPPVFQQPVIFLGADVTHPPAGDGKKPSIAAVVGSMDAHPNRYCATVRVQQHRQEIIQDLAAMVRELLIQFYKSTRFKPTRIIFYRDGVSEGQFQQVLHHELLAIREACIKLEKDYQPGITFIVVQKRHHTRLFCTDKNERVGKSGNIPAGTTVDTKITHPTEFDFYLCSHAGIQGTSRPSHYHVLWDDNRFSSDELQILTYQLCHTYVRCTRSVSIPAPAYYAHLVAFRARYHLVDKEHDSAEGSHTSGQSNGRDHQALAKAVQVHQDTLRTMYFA
When cariMirs were mixed with recombinant Ago2 pre-loaded with synthetic miRs, cariMirs were cleaved producing the expected 5′ and 3′ cleavage products (see FIG. 14B), consistent with miR-guided Ago2 endonucleolytic action subsequent to specific hybridization of cariMir and miR within Ago2. […] Various components of the method are shown in the lanes of the gel as indicated above the gel. In the rightmost lane on the gel image (labeled “miR+Ago2+cariMir”), all components are added to allow potential Ago-mediated cleavage of the cariMir to occur (see FIG. 14A). The amounts of the various components in the reaction mixture are indicated to the left of the gel. […]

B1: miR guide ; cariMir target (ssRNA ; ssDNA)
RNA: UAGAGGUACGUGCUGAGGCUU
DNA: CTAGCATGACTGCAGTACGTCACTGCAGGCCTCAGCACGTACCTCTATAACCGCCCTGTCTCTTATACACATCTGACGCTGCCGACGA
modifications: 5'-phosphate, internal fluorescein-dT
As to B1, the binding result is “binds”.

These data come from patent publication US20170356903, “OLIGONUCLEOTIDE PROBES AND USES THEREOF” (Caris Science, Inc., published 2017).
